According to the Immune Epitope Database (IEDB):
pKd: −log10 of the molar value.

Tests used:
Assay in all cases: IEDB peptide-MHC binding, purified MHC/competitive/radioactivity; filed as Kd, often an IC50 or EC50 that approximates it; ≥ and ≤ were set here for values at or beyond the usual limits of such assays
[1] = target: HLA-A*31:01
[2] = target: HLA-A*33:01
[3] = target: HLA-A*68:01
[4] = target: HLA-A*03:01
[5] = target: HLA-A*11:01
[6] = target: HLA-A*02:06
[7] = target: HLA-A*02:03
[8] = source organism: Vaccinia virus WR
[9] = source organism: Dengue virus 2 Jamaica/1409/1983
[10] = source organism: SARS coronavirus Tor2
[11] = source organism: Dengue virus 3 Sri Lanka/1266/2000
[12] = source organism: Lymphocytic choriomeningitis virus (strain Traub)
[13] = source organism: Vaccinia virus Copenhagen
[14] = source organism: Dengue virus 1 Brazil/97-11/1997
[15] = source organism: Dengue virus 4 Philippines/H241/1956
[16] = source organism: Mammarenavirus machupoense
[17] = source organism: Mammarenavirus juninense

ISRDELWAR
pKd [1, 8]: 7.32 | pKd [2, 8]: 8.77 | pKd [3, 8]: 6.02 | pKd [4, 8]: ≤ 4.11 | pKd [5, 8]: ≤ 4.65

ISSRVDRYSK
pKd [1, 8]: 5.14 | pKd [2, 8]: ≤ 4.15 | pKd [3, 8]: 6.06 | pKd [4, 8]: ≤ 4.56 | pKd [5, 8]: 6.54

ITLDTMDDMK
pKd [1, 8]: 4.78 | pKd [2, 8]: ≤ 4.15 | pKd [3, 8]: 6.91 | pKd [4, 8]: 5.50 | pKd [5, 8]: 7.37

ITYKCPLLR
pKd [1, 9]: 7.94 | pKd [2, 9]: 6.70 | pKd [3, 9]: 7.23 | pKd [4, 9]: 7.79 | pKd [5, 9]: 7.19

IVQMLSDTLK
pKd [1, 10]: 5.42 | pKd [2, 10]: ≤ 4.65 | pKd [3, 10]: 5.93 | pKd [4, 10]: 6.53 | pKd [5, 10]: 7.19

IVSSVNMVSR
pKd [1, 11]: 7.08 | pKd [2, 11]: 6.46 | pKd [3, 11]: 8.04

KCHDHYLCR
pKd [1, 12]: 6.96 | pKd [2, 12]: 5.87 | pKd [3, 12]: ≤ 4.32 | pKd [4, 12]: 5.12 | pKd [5, 12]: 5.49

KLKHRDGFTK
pKd [1, 13]: 6.14 | pKd [2, 13]: ≤ 4.54 | pKd [3, 13]: ≤ 4.41 | pKd [4, 13]: 7.43 | pKd [5, 13]: 6.88

KNGAIKVLR
pKd [1, 14]: ≤ 4.29

KQLGQIMLL
pKd [6, 14]: 8.24

KSVLDIISSK
pKd [1, 13]: 6.82 | pKd [2, 13]: 4.70 | pKd [3, 13]: 6.57 | pKd [4, 13]: 7.61 | pKd [5, 13]: 8.05

LALSLTFIR
pKd [1, 15]: 7.01 | pKd [2, 15]: 8.19

LLILCTSQI
pKd [7, 14]: 8.06

LLKTALLIV
pKd ([7]; source organism: Dengue virus 3 Martinique/1243/1999): 7.97

LLNRFTMAHR
pKd [1, 14]: ≤ 4.31

LMAFANQIHH
pKd [1, 16]: ≤ 4.65 | pKd [2, 16]: ≤ 4.15 | pKd [3, 16]: ≤ 4.33 | pKd [4, 16]: 6.03 | pKd [5, 16]: 4.82

LMAYANQIHH
pKd [1, 17]: ≤ 4.61 | pKd [2, 17]: ≤ 4.27 | pKd [3, 17]: ≤ 4.62 | pKd [4, 17]: 6.28 | pKd [5, 17]: 5.01

LMYFHRRDLR
pKd [1, 9]: 9.25 | pKd [2, 9]: 7.76 | pKd [3, 9]: 6.68 | pKd [4, 9]: 6.85

LQMEDKAWL
pKd [6, 9]: 7.49

LQMENKAWL
pKd ([6]; source organism: Dengue virus 2 16681-PDK53): 7.64

LSIVVDINK
pKd [1, 8]: 5.38 | pKd [2, 8]: ≤ 4.11 | pKd [3, 8]: 7.82 | pKd [4, 8]: 5.29 | pKd [5, 8]: 7.62

LSKIPYLRNY
pKd [1, 8]: 6.49 | pKd [2, 8]: 5.04 | pKd [3, 8]: 5.02 | pKd [4, 8]: 5.16 | pKd [5, 8]: 5.58
